# Measurements: the supplement of paper PMC7877785
# ± gives the uncertainty stated by the source.
# Assay: self-splicing fitness, log relative to wild type (ln ratio); higher = more splicing; Tetrahymena group I intron in knt gene, E. coli kanamycin selection, DiMSum; sequences stand for … in CUCUCU…GGAGGGAAAAGUUAUCAGGCAUGCACCUGGUAGCUAGUCUUUAAACCAAUAGAUUGCAUCGGUUUAAAAGGCAAGACCGUCAAAUUGCGGGAAAGGGGUCAACAGCCGUUCAGUACCAAGUCUCAGGGGAAACUUUGAGAUGGCCUUGCAAAGGGUAUGGUAAUAAGCUGACGGACAUGGUCCUAACCACGCAGCCAAGUCCUAAGUCAACAGAUCUUCUGUUGAUAUGGAUGCAGUUCACAGACUAAAUGUCGGUCGGGGAAGAUGUAUUCUUCUCAUAAGAUAUAGUCGGACCUCUCCUUAAUGGGAGCUAGCGGAUGAAGUGAUGCAACACUGGAGCCGCUGGGAACUAAUUUGUAUGCGAAAGUAUAUUGAUUAGUUUUGGAGUACUCGUGGUCG
# Procedure, shortened: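 Fitness was computed with DiMSum as the error-weighted combination of replicate fold changes, kanamycin versus none, each normalised to wild type. The library randomised all eight intron nucleotides of the P1ex region, with the intron placed in the knt kanamycin-resistance gene on pET-22b(+) in E. coli BL21(DE3). Six replicate transformations were grown overnight at 37°C or 30°C on LB agar with or without 25 μg/mL kanamycin, plus 100 μg/mL carbenicillin, 50 μM IPTG and 0.2% rhamnose. Pooled colonies were amplicon-sequenced on an Illumina HiSeq 2500.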
Sequence,self-splicing fitness (ln) (30 °C),self-splicing fitness (ln) (37 °C)
UCAAAGCAAUAUUACGUCGA,-0.83 ± 0.077,-0.792 ± 0.081
UCAAAGCAAUAUUACGUGCC,-2.35 ± 0.18,-1.57 ± 0.39
UCAAAGCAAUAUUACGUUAA,-3.54 ± 0.19,-0.92 ± 0.12
UCACAGCAAUAUUACGAAUG,-1.77 ± 0.097,-1.61 ± 0.14
UCACAGCAAUAUUACGAGAA,-3.16 ± 0.34,-1.68 ± 0.24
UCACAGCAAUAUUACGAGAU,-4.39 ± 0.25,-2.85 ± 0.24
UCACAGCAAUAUUACGAGUA,-2.02 ± 0.1,-1.52 ± 0.085
UCACAGCAAUAUUACGAUAU,-2.96 ± 0.22,-2.67 ± 0.19
UCACAGCAAUAUUACGAUUG,-2.97 ± 0.12,-1.34 ± 0.11
UCACAGCAAUAUUACGCCUG,-1.21 ± 0.11,-0.438 ± 0.12
UCACAGCAAUAUUACGCGAG,-1.32 ± 0.063,-0.0838 ± 0.077
UCACAGCAAUAUUACGCGUA,-1.09 ± 0.086,-0.297 ± 0.082
UCACAGCAAUAUUACGCGUU,-4 ± 0.21,-2.13 ± 0.17
UCACAGCAAUAUUACGCUUU,-3.36 ± 0.15,-3.6 ± 0.27
UCACAGCAAUAUUACGGAUA,-2.87 ± 0.16,-1.47 ± 0.12
UCACAGCAAUAUUACGGGUA,-1.93 ± 0.13,-0.772 ± 0.1
UCACAGCAAUAUUACGGUCA,-0.0483 ± 0.085,0.318 ± 0.099
UCACAGCAAUAUUACGUAGG,-1.07 ± 0.055,-1.05 ± 0.082
UCACAGCAAUAUUACGUAUU,-3.5 ± 0.15,-2.54 ± 0.14
UCACAGCAAUAUUACGUCAA,-2.7 ± 0.17,-1.46 ± 0.13
UCACAGCAAUAUUACGUCCU,-3.15 ± 0.19,-2.27 ± 0.15
UCACAGCAAUAUUACGUCUU,-1.68 ± 0.12,-2.4 ± 0.16
UCACAGCAAUAUUACGUGAG,-0.886 ± 0.03,-0.396 ± 0.052
UCACAGCAAUAUUACGUGCC,-1.42 ± 0.11,0.00553 ± 0.12
UCAGAGCAAUAUUACGACUU,-2.45 ± 0.19,-3.12 ± 0.38

Sequence,self-splicing fitness (ln) (30 °C),self-splicing fitness (ln) (37 °C)
UCAGAGCAAUAUUACGCAGA,-2.96 ± 0.27,-1.47 ± 0.21
UCAGAGCAAUAUUACGCCAU,–,-1.91 ± 0.29
UCAGAGCAAUAUUACGGCUA,-2.46 ± 0.28,-2.11 ± 0.24
UCAGAGCAAUAUUACGGGCG,-2.45 ± 0.17,-2 ± 0.25
UCAGAGCAAUAUUACGGGGG,-2.66 ± 0.23,-3.15 ± 0.35
UCAGAGCAAUAUUACGGGGU,-3.35 ± 0.23,-2.88 ± 0.27
UCAGAGCAAUAUUACGUAGU,-3.58 ± 0.43,-2.88 ± 0.35
UCAGAGCAAUAUUACGUGUU,-4.84 ± 0.27,-2.27 ± 0.17
UCAUAGCAAUAUUACGAACU,-2.36 ± 0.33,-2.08 ± 0.26
UCAUAGCAAUAUUACGACUA,-2.82 ± 0.29,-1.78 ± 0.24
UCAUAGCAAUAUUACGAGCA,-0.736 ± 0.2,-1.11 ± 0.23
UCAUAGCAAUAUUACGCAAA,-2.54 ± 0.25,-1.72 ± 0.3
UCAUAGCAAUAUUACGCCGA,-0.67 ± 0.18,0.277 ± 0.18
UCAUAGCAAUAUUACGCCGG,-1.25 ± 0.12,-0.72 ± 0.12
UCAUAGCAAUAUUACGCGAU,-1.9 ± 0.22,–
UCAUAGCAAUAUUACGCUGC,-3.13 ± 0.31,-2.52 ± 0.41
UCAUAGCAAUAUUACGGAAC,-4.02 ± 0.47,–
UCAUAGCAAUAUUACGGCCA,–,-0.442 ± 0.46
UCAUAGCAAUAUUACGGGUG,-1.94 ± 0.093,-0.795 ± 0.085
UCAUAGCAAUAUUACGGGUU,-4.83 ± 0.36,-3.34 ± 0.25
UCAUAGCAAUAUUACGGUCG,-1.14 ± 0.083,-0.0517 ± 0.1
UCAUAGCAAUAUUACGUACU,-4.14 ± 0.19,-2.96 ± 0.19
UCAUAGCAAUAUUACGUCAG,-2.96 ± 0.18,-1.36 ± 0.15
UCAUAGCAAUAUUACGUCCA,-1.07 ± 0.16,-0.442 ± 0.17
